{"source": "the DeepSol protein solubility set"}
{"assay": "soluble on expression in E. coli; label from the status in PepcDB or PDB records"}
{"sequence": "MSQFSKDQVQDMYYLSPMQEGMLFHAILNPGQSFYLEQITMKVKGSLNIKCLEESMNVIMDRYDVFRTVFIHEKVKRPVQVVLKKRQFHIEEIDLTHLTGSEQTAKINEYKEQDKIRGFDLTRDIPMRAAIFKKAEESFEWVWSYHHIILDGWCFGIVVQDLFKVYNALREQKPYSLPPVKPYKDYIKWLEKQDKQASLRYWREYLEGFEGQTTFAEQRKKQKDGYEPKELLFSPSEAETKAFTELAKSQHTTLSTALQAVWSVLISRYQQSGDLAFGTVVSGRPAEIKGVEHMVGLFINVVPRRVKLSEGITFNGLLKRLQEQSLQSEPHQYVPLYDIQSQADQPKLIDHIIVFENYPLQDAKNEESSENGFDMVDVHVFEKSNYDLNLMASPGDEMLIKLAYNENVFDEAFILRLKSQLLTAIQQLIQNPDQPVSTINLVDDREREFLLTGLNPPAQAHETKPLTYWFKEAVNANPDAPALTYSGQTLSYRELDEEANRIARRLQKHGAGKGSVVALYTKRSLELVIGILGVLKAGAAYLPVDPKLPEDRISYMLADSAAACLLTHQEMKEQAAELPYTGTTLFIDDQTRFEEQASDPATAIDPNDPAYIMYTSGTTGKPKGNITTHANIQGLVKHVDYMAFSDQDTFLSVSNYAFDAFTFDFYASMLNAARLIIADEHTLLDTERLTDLILQENVNVMFATTALFNLLTDAGEDWMKGLRCILFGGERASVPHVRKALRIMGPGKLINCYGPTEGTVFATAHVVHDLPDSISSLPIGKPISNASVYILNEQSQLQPFGAVGELCISGMGVSKGYVNRADLTKEKFIENPFKPGETLYRTGDLARWLPDGTIEYAGRIDDQVKIRGHRIELEEIEKQLQEYPGVKDAVVVADRHESGDASINAYLVNRTQLSAEDVKAHLKKQLPAYMVPQTFTFLDELPLTTNGKVNKRLLPKPDQDQLAEEWIGPRNEMEETIAQIWSEVLGRKQIGIHDDFFALGGHALKAMTAASRIKKELGIDLPVKLLFEAPTIAGISAYLKNGGSDGLQDVTIMNQDQEQIIFAFPPVLGYGLMYQNLSSRLPSYKLCAFDFIEEEDRLDRYADLIQKLQPEGPLTLFGYSAGCSLAFEAAKKLEEQGRIVQRIIMVDSYKKQGVSDLDGRTVESDVEALMNVNRDNEALNSEAVKHGLKQKTHAFYSYYVNLISTGQVKADIDLLTSGADFDIPEWLASWEEATTGVYRMKRGFGTHAEMLQGETLDRNAEILLEFLNTQTVTVSKGEFEAYVEQKLISEEDLNSAVDHHHHHH", "soluble on expression in E. coli": "soluble"}
{"sequence": "MSQHLVPEAKNGLSKFKNEVANEMGVPFSDYNGDLSSRQCGSVGGEMVKRMVEKYEQSMK", "soluble on expression in E. coli": "soluble"}
{"sequence": "MSQLLKLKSQYDDECTVTRHYEGKGRNAGRLGAVGCKNRHGEFRIGSGFKDKDRDNPPKIGTLITYRYRGFTRKGTPKFATFVRVRTLEHHHHHH", "soluble on expression in E. coli": "not soluble"}
{"sequence": "MSQLTEFISCIPVVNEEQNEEDERGLCKIQIEDGAMLETLDENSLSGLRIEKMLVSEGTGIFSKSSFGINDLRIFTGENIDEESKKYVWYELLKMLTGHKVYIASLDEKVVFTKWTCRMQDDEVWKVVMELESSAIIRKIAELTLHPVKKGEIDLFEMADKLYKDICCVNDSYRNIKESDSSNRNRVEQLARERELLDKLLETRDERTRAMMVTLLNEKKKKIRELHEILRQNNIKLSDDDVLDSA", "soluble on expression in E. coli": "soluble"}
{"sequence": "MSQLVECVPNFSEGNNQEVIDAISQAISQTPGCVLLDVDAGPSTNRTVYTFVGQPECVVEGALSAARTASQLIDMRKHKGEHPRMGALDVCPFIPVRGVSMDECVLCAKAFGQRLAEELNVPVYLYGEAAQMPSRQTLPAIRAGEYEALPEKLKQAEWVPDFGPSSFVPSWGATVTGARKFLIAFNINLLSTKEQAHRIALNLREQGRGKDQPGRLKKVQGIGWYLEEKNLAQVSTNLLDFEVTALHTVYEEARREAQELNLPVVGSQLVGLVPLKALLDAAAFYCDKEKLFVLEEEHRIRLVVNRLGLDSLAPFDPKERIIEYLVPDSGPEQSLLDASLRAFVREVGARSAAPGGGSVAAAVAALGAALASMVGQMTYGRRQFDHLDSTMRRLIPPFHAASAQLTSLVDADARAFAACLGAIKLPKNTPEERDRRTCALQEGLRQAVAVPLKLAETVSQLWPALQELAQCGNLSCLSDLQVAAKALETGVFGAYFNVLINLKDMTDDVFKEKTRHRISSLLQEAKTQAALVLGSLEARKE", "soluble on expression in E. coli": "soluble"}
{"sequence": "MSQLVYFSSSSENTQRFIERLGLPAVRIPLNERERIQVDEPYILIVPSYGGGGTAGAVPRQVIRFLNDEHNRALLRGVIASGNRNFGEAYGRAGDVIARKCGVPWLYRFELMGTQSDIENVRKGVTEFWQRQPQNA", "soluble on expression in E. coli": "soluble"}
{"sequence": "MSQPIQFESNIALINYPKQAAFGRTLPKNKIYEHSGANTRLKDLFIEQVELIVWRYKLAPETINLPARPGVPELQIFSIQLKTSELNLDVLHCIDGAVQFPIIFELSFDGRTKVIAAYKRPNESDASRWVLSSYFATAWLPSDSERAAIPLALDLGGLYEQVLHRLIPMPARPQESLADLVARVEMVAAKQREVEKAASRLAKEKQFNRKVEINAQLRQLKNELEELTGRENA", "soluble on expression in E. coli": "not soluble"}
{"sequence": "MSQPLNVAVVGATGSVGEALVGLLDERDFPLHRLHLLASAESAGQRMGFAESSLRVGDVDSFDFSSVGLAFFAAAAEVSRAHAERARAAGCSVIDLSGALEPSVAPPVMVSVNAERLASQAAPFLLSSPCAVAAELCEVLAPLLATLDCRQLNLTACLSVSSLGREGVKELARQTAELLNARPLEPRLFDRQIAFNLLAQVGAVDAEGHSAIERRIFAEVQALLGERIGPLNVTCIQAPVFFGDSLSVTLQCAEPVDLAAVTRVLDATKGIEWVGEGDYPTVVGDALGQDETYVGRVRAGQADPCQVNLWIVSDNVRKGAALNAVLLGELLIKHYL", "soluble on expression in E. coli": "soluble"}
{"sequence": "MSRDARWKALLELLVERGRLDVEEAATELEVSAATIRRDFDRLAEQQMLVRTRGGAVVHGVSYELPLRYKTARRASEKQRVAQAVAALVAPGEAVGLTGGTTTTEVARALAVRADLASGTPALTVVTNALNIANELAVRPQFKIVVTGGVARAQSYELIGPLADGVLGQVTLDVAVLGVVAFDVAHGAAAHDEAEAAINRLLCERAERVVVAADSSKLGRRAFARICATESVDTLVTDGAADPELVGRFEEAGVRVVTALEHHHHHH", "soluble on expression in E. coli": "not soluble"}
{"sequence": "MSREQAILVGCQLAGVDDERFRYSMEELVSLVATANGEVVAEVTQKREAPHPATYIGKGKTEELAAIVKQLEPDVVIFNSELSPSQARNLTKMLGEVKVIDRT", "soluble on expression in E. coli": "not soluble"}
{"sequence": "MSRLLALLALAPLLAGAAETTAPKPPSAFTVEAQRRVEAELPFADRADFERADRGLIRRPERLLIRNPDGSVAWQLGGYDFLLDGKPRDSINPSLQRQALLNLKYGLFEVAEGIYQVRGFDLANITFIRGDSGWIVVDTLTTPATARAAYELVSRELGERPIRTVIYSHAHADHFGGVRGLVEPQQVASGAVQIIAPAGFMEAAIKENVLAGNAMMRRATYQYGTQLPKGPQGQVDMAIGKGLARGPLSLLAPTRLIEGEGEDLVLDGVPFTFQNTPGTESPAEMNIWLPRQKALLMAENVVGTLHNLYTLRGAEVRDALGWSKYINQALHRFGRQAEVMFAVHNWPRWGNAEIVEVLEKQRDLYGYLHDQTLHLANQGVTIGQVHNRLRLPPSLDQEWYDRGYHGSVSHNARAVLNRYLGYYDGNPATLDPLSPEDSAGRYVEYMGGAERLLEQARASYARGEYRWVVEVVNRLVFAEPDNRAARELQADALEQLGYQAENAGWRNSYLSAAYELRHGVPRDQPTMKAGSADALAAMDTGLLFDYLGVRLDAGAAEGKALSINLRLPDIGENYLLELKNSHLNNLRGVQSEDAGQTVSIDRADLNRLLLKEVSAVRLVFEGKLKSSGNPLLLGQLFGMLGDFDFWFDIVTPAAKSEG", "soluble on expression in E. coli": "soluble"}
{"sequence": "MSRNNEELQGISLLGNQKTQYPTGYAPEILEAFDNKHPDNDYFVKFVCPEFTSLCPMTGQPDFATIYIRYIPHIKMVESKSLKLYLFSFRNHGDFHEDCVNIIMKDLIALMDPKYIEVFGEFTPRGGIAIHPFANYGKAGTEFETLARKRLFEHDAQ", "soluble on expression in E. coli": "not soluble"}
{"sequence": "MSRRNATSFVDNNTLTSSEGLTSGVFSWALERLPTCLREELQLPLTDTGSCWQTN", "soluble on expression in E. coli": "not soluble"}
{"sequence": "MSSALISSEQALNDYFTALLDEETAEFESTLKPEPVWEMAPAIQSVPNKSYFDAEIEELELPNLEDVQRLLSQLESSNPVADLDLEQILEENTAKIAKIDPVVQPCSVVEEIQEWEIETSYVEPDIETPESVIEDDLEPESVDTEAEREIAIETSIEEPVAEVPVVEAQAVPETQAGRNKLGTWTNTIREKDFQVLYFDVNGVTFAVPLDELGGIHRMTTLNHLIGRPAWYLGLQTNRDSQLDVVDTAKWVMAEKLRDESYKQAYQYIVMLGESAWGLASTQLMGTELLSTEKVRWREQVGKRPWLAGMVKEKMCALIHVQALIAMLNAGLDVKALEN", "soluble on expression in E. coli": "not soluble"}
{"sequence": "MSSAQFDHVTVIKKSNVYFGGLCISHTVQFEDGTKKTLGVILPTEQPLTFETHVPERMEIISGECRVKIADSTESELFRAGQSFYVPGNSLFKIETDEVLDYVCHLEG", "soluble on expression in E. coli": "soluble"}
{"sequence": "MSSCSSLQSSSSRGASTDSLNTTSNGFSDGGSNLLPPKPNRIGCAATGAQSETDLRFVTSRDTHSSIPLNEPFGFGEKSPRAFMSENDLSAGAAGASTDFPEVTRTPSYLRISCALNGYTKSPNKSDLTPIAPHPPVSTMGESFVERRSRMFSQPQQRNPAPGFSSPLPPTTVSSQSASSEIEWSVEKF", "soluble on expression in E. coli": "not soluble"}
{"sequence": "MSSDKSIEKNTDTIASEVHEGDNHSNNLGSMEEEIKSTPSDQYEEIAIIPTEPLHSDKELNDKQQSLGHEAPTNVSREEPIGISGDEDTQITEQNVNEQRQETREPSSEIDLNEPLDVEKDVTTDVQAPNGLNIEKEYDAVKENEKVYADTKEVVSSPENREVTGKNSGGEKSSSSKFLDDESGTTTAANANDISISSEVTPERSSENDNNQIHITNEVAAGINLNENKEQKAAIEDGPVTAENLSSETARKVPPIPTQIINEKGDNSSENEVSAIPTTSSPPLPPRQNVATSTSPKLPPRGKQREQPPKTKNAVPPPLEEEMKSEKFRKNFEETKRNSYHHVPLTGSKTAQLESTAEINLIASRYRKTSHHLNKEGEETRESLQEGQSFLKSTFTSFLENLSEYNEVENVNEEDREMFKIDWSFWTQVVNDYATVASNEPENLEAHVTNGIPPQIRGIIWQLMANSKSREMEDIYETLLDTECLHEATIRRDLRRTKFVAEDKMESLYKVIKVYSVYDPDVGYTQGMGFIAAPLLINCENEAESFGLLVGLMKNYGLRELFLPGMPGLMLMLYQFDRLLEEHSPSLYNRLIREGISSTMYATQWFLTFFAYKFPLEFVLRIFDIVFVEGIEVLLKFAVNLMLKNEETLVKLRFDELLDFLKDELFNYYLMGNQDDASVVQMGLSNGNSFKGNDDGTFSYNVDLFVHDAMTGVYITPLTLRRYRGEYVEIHEKEQKKEDHYESLRIQNHQLQREAQKLEHDYSILNKENISAANELIQNRLNMEMLLDEKNDLINTITDIKSQIEEEIRKQNLPNPDASLPKADLREDLERTISRNNEVMRENGQLEERITELQAEIDELININKEQVSTASLLERDSKAKGRKGWTGFKKVFK", "soluble on expression in E. coli": "soluble"}
{"sequence": "MSSFTHFNDQGRAKMVDISDKKATVRTAIACSSIVVTKEIYDKISHNEIGKGDVLAVAQIAGIMAAKRTSDIIPMCHPLLLKGVDVSFDWKQSDEQYRLLIEVKVKTEGSTGVEMEALTAASATALTVYDMCKAVDKGMIIGETYLLEKTGGKSGDYTRKS", "soluble on expression in E. coli": "not soluble"}
{"sequence": "MSSGNILWGSQNPIVFKNSFGVSNADTGSQDDLSQQNPFAEGYGVLLILLMVIQAIANNKFIEVQKNAERARNTQEKSNEMDEVIAKAAKGDAKTKEEVPEDVIKYMRDNGILIDGMTIDDYMAKYGDHGKLDKGGLQAIKAALDNDANRNTDLMSQGQITIQKMSQELNAVLTQLTGLISKWGEISSMIAQKTYS", "soluble on expression in E. coli": "not soluble"}
{"sequence": "MSSKEQKTPEGQAPEEIIMDQHEEIEAVEPEASAEQVDPRDEKVANLEAQLAEAQTRERDGILRVKAEMENLRRRTELDIEKAHKFALEKFINELLPVIDSLDRALEVADKANPDMSAMVEDIELTLKSMLDVVRKFGVEVIAETNVPLDPNVHQAIAMVESDDVAPGNVLGIMQKGYTLNGRTIRAAMVTVAKAKA", "soluble on expression in E. coli": "soluble"}
